Publication PMC3604778
Where two headings read alike, the source gives them in different places.

Legend:
[1] = target: human plasminogen (human); assay: SPR
[2] = target: human plasminogen (human); assay: radioligand binding
[3] = target: SCM expressed on the surface of S. canis G361 (Streptococcus canis (endogenous in strain G361)); assay: radioligand binding
[4] = target: SCM expressed on the surface of S. canis G361 (Streptococcus canis (endogenous in strain G361)); assay: radioligand binding; remark: listed apart in the source

Kd [1] [nM]	Substance	percent binding of 125I-plasminogen to G361 left with 1.0 µM nonlabeled SCM [2] [%]	percent binding of 125I-SCM to G361 (1 × 10^7 bacteria) [3] [%]	percent binding of 125I-SCM to G361 (2 × 10^7 bacteria) [3] [%]	percent binding of 125I-SCM to G361 (4 × 10^6 bacteria) [3] [%]	percent binding of 125I-SCM to G361 (control without inhibitor) [3] [%]	percent binding of 125I-SCM to G361 bacteria [3] [%]	percent binding of 125I-SCM to G361 left with 1.0 µM nonlabeled SCM [3] [%]	percent binding of 125I-SCM to G361 left with 10.0 µg nonlabeled SCM [3] [%]	percent specific binding of 125I-SCM to G361 bacteria [3] [%]	percent binding of 125I-SCM to G361 bacteria [4] [%]
800	recombinant S. canis enolase (strain G361) (from UniProt A0A2D4DNT6 1-435) (enzyme)	–	–	–	–	–	–	–	–	–	–
–	purified recombinant SCM, M-like protein of S. canis (derived from strain G361) (natural protein)	41.3	13.1	19.3	6.5	28.7	23.5	15.8	4.2	20.5	25.7
